Data published in PMC10070186, “Unusual peptide-binding proteins guide pyrroloindoline alkaloid formation in crocagin biosynthesis” (Nature Chemistry, 2023).

Columns and labels:
Conditions in all cases: both partners purified
[1] = target: T1, CgnC (Chondromyces crocatus CM c5); experiment: SEC; size-exclusion chromatography of the single proteins in solution
T1 chain: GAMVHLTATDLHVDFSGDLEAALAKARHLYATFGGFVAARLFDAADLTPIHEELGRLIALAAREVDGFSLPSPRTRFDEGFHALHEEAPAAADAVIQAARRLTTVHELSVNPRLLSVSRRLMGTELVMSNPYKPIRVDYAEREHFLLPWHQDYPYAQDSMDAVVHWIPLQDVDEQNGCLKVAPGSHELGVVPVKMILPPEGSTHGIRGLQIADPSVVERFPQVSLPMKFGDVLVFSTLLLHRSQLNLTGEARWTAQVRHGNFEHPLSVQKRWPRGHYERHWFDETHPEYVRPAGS

[2] = target: T2, CgnB (Chondromyces crocatus CM c5); experiment: MST; microscale thermophoresis in the presence of a constant, large excess of CgnE (250 µM)
T2 construct: CgnB of the crocagin BGC of Chondromyces crocatus CM c5; Construct details are in the Supplementary Methods; source: purified (HisTrap, His-SUMO removed with TEV protease, Superdex 200)

[3] = target: T3, CgnE in the presence of CgnA (400 µM) (Chondromyces crocatus CM c5); experiment: MST; microscale thermophoresis in the presence of CgnA (400 µM)
T3 construct: CgnE of Chondromyces crocatus CM c5, as m4; CgnA of Chondromyces crocatus CM c5, 21 amino acids, as m1; also called CgnA-CgnE; source: purified CgnE mixed with 400 µM CgnA

[4] = target: T4, CgnB in the presence of CgnA (400 µM) (Chondromyces crocatus CM c5); experiment: as above
T4 construct: CgnB of Chondromyces crocatus CM c5, as m2; CgnA of Chondromyces crocatus CM c5, 21 amino acids, as m1; also called CgnA-CgnB; source: purified CgnB mixed with 400 µM CgnA

[5] = target: T2, CgnB; experiment: MST; microscale thermophoresis of two components; which one was titrated is told only in Fig. 3c
[6] = target: T5, CgnE (Chondromyces crocatus CM c5); experiment: as above
T5 construct: CgnE of the crocagin BGC of Chondromyces crocatus CM c5; Construct details are in the Supplementary Methods; source: purified (HisTrap, His-SUMO removed with TEV protease, Superdex 200)

B1: CgnC (enzyme)
chain: T1 chain
modifications: sequence from Supplementary Table 8 (the excerpt mark inside it is read as contiguous); N-terminal GA is a cloning remnant; dimer by size-exclusion chromatography / sequence from Supplementary Table …
stoichiometry N [1]: 2

B2: CgnC in the presence of a constant, large excess (250 µM) of CgnE (complex)
chain 1: T1 chain
chain 2: GMGGRRTIGIRSGEGAIMNASDFYALLRGRGMPVVVDDAEAAAVVSELGFRTVPFEAFDFDSPSEDPALVIVAQMGNVDALHGLWERSGTPLMHLALAKFDGGLSRLRAGLARVLAVDTDAALKRRAEAYEQLFSSASVEIASGEGVLRCHIGDEVEVGNCGDTLEQGFLYSVAEFLEASVVNLEGERSTFWVEGELPFDGFIHLSNSAALKERWGGMLDEFMRRSREGANLVRFADNVIDRLVVGGVDVTSALAGLSQGEERGMAATEFGLGCADAEAAEPFGVNSLLHKSAGGAYIGIGKGLRIPHIDFIARGATIRFIPAAEG
modifications: CgnC is a dimer and CgnE a monomer in solution when alone; stoichiometry of the complex is not given
Kd [2]: 28 µM

B3: CgnC (enzyme)
chain: T1 chain
modifications: sequence from Supplementary Table 8 (the excerpt mark inside it is read as contiguous); N-terminal GA is a cloning remnant; dimer by size-exclusion chromatography
fold increase of the CgnC–CgnE affinity on addition of CgnA (400 µM) [3]: 2 fold
Kd [4]: ~0.1 µM
Kd [5]: ~6 µM
Kd [6]: ~1 µM

B4: CgnA leader peptide (CgnA^LP) (peptide)
chain: MKKTIKQISAGDRSKKGN
fold reduction in affinity compared to CgnA [5]: 8 fold
Kd [6]: 514 µM
